Data reported in patent US20070086956A1 (Bayer, published 2007).
Like-named read-outs stand apart in the source and are kept apart here. Where no end group is shown, it is not given here.

Assays:
[1] = target: T1, human neutrophil elastase (human, UniProt P08246 30-247, limits assumed); test: enzyme inhibition, elastase
T1 sequence (looked up): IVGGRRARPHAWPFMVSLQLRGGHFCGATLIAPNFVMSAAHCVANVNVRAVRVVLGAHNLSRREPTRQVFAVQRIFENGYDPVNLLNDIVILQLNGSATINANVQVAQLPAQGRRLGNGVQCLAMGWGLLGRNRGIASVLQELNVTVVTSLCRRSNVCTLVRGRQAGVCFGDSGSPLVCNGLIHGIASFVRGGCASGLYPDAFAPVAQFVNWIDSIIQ
Description: (§1) Ki values were determined from Dixon plots of the form 1/V versus performed at two different substrate concentrations (Dixon et al., 1979).

[2] = target: T2, Factor XIa (human, UniProt P03951 19-625); test: enzyme inhibition, Factor XIa 0.1 nM
T2 construct: also called FXIa; Human FXIa

[3] = target: T3, human plasmin (human, UniProt P00747 97-810, limits assumed); test: enzyme inhibition, human plasmin 50 pM
[4] = target: T3, human plasmin; test: enzyme inhibition, human plasmin 50 pM; remark: listed apart in the source
[5] = target: T4, human tissue kallikrein (human, UniProt P06870 25-262); test: enzyme inhibition, human tissue kallikrein
[6] = target: T5, Bovine chymotrypsin (bovine, UniProt P00766 1-13; P00766 16-146; P00766 149-245); test: enzyme inhibition, bovine chymotrypsin 5 nM
[7] = target: human urokinase (human, UniProt P00749 21-431, limits assumed); test: enzyme inhibition, urokinase, substrate GGR-AMC
[8] = target: T6, human plasma kallikrein (human, UniProt P03952 20-638); test: enzyme inhibition, human plasma kallikrein […] nM
[9] = target: T7, human factor Xa (human, UniProt P00742 41-179; P00742 235-488, limits assumed); test: enzyme inhibition, factor Xa 0.87 nM, substrate LGR-AMC
[10] = target: T5, Bovine chymotrypsin; test: enzyme inhibition, chymotrypsin 5 nM, substrate AAPF-pNA
[11] = target: T3, human plasmin; test: enzyme inhibition, human plasmin 50 pM, substrate GPK-AMC
[12] = target: T4, human tissue kallikrein; test: enzyme inhibition, human tissue kallikrein 0.35 nM, substrate PFR-AMC
[13] = target: T2, Factor XIa; test: enzyme inhibition, factor XIa 0.1 nM, substrate Boc-Glu(OBzl)-Ala-Arg-AMC
[14] = target: T1, human neutrophil elastase; test: enzyme inhibition (Dixon plot), human neutrophil elastase 19 nM, substrate AAPM-AMC
Description: as §1

[15] = target: T8, bovine pancreatic kallikrein (bovine); test: enzyme inhibition, bovine pancreatic kallikrein 92.0 pM
T8 construct: also called kallikrein-sepharose

[16] = target: T6, human plasma kallikrein; test: enzyme inhibition, plasma kallikrein (apparent Ki)
[17] = target: T9, bovine trypsin (type III) (bovine, UniProt P00760 24-246); test: enzyme inhibition, trypsin 48.5 pM
[18] = target: T3, human plasmin; test: enzyme inhibition, human plasmin 50 pM; remark: listed apart in the source
[19] = target: T9, bovine trypsin (type III); test: enzyme inhibition, trypsin 48.5 pM; remark: listed apart in the source
[20] = target: T2, Factor XIa; test: enzyme inhibition, factor XIa 0.1 nM
[21] = target: T7, human factor Xa; test: enzyme inhibition, factor Xa 0.87 nM
[22] = target: T3, human plasmin; test: enzyme inhibition, human plasmin 50 pM; remark: listed apart in the source
[23] = target: T10, Tissue Factor VIIa; test: enzyme inhibition, method not described
T10 construct: also called TF/FVIIa

[24] = target: T6, human plasma kallikrein; test: enzyme inhibition, human plasma kallikrein 2.5 nM
[25] = target: T8, bovine pancreatic kallikrein; test: enzyme inhibition, bovine pancreatic kallikrein 100 pM
[26] = target: tissue plasminogen activator (tPA), single chain form from human melanoma cell culture (human, UniProt P00750 36-562, limits assumed); test: enzyme inhibition, tPA 7.5 nM, chromogenic substrate, A405
Description: Inhibition of tissue plasminogen activator (tPA) was also determined as follows: tPA (single chain form from human melanoma cell culture from Sigma Chemical Co, St Louis, Mo.) was pre-incubated with inhibitor for 2 hr at room temperature in 20 mM Tris buffer pH 7.2 containing 150 mM NaCl, and 0.02% sodium azide. […] Formation of p-Nitroaniline was determined from the A405 nm measured following incubation at 37 C for 2 hr.

[27] = target: T4, human tissue kallikrein; test: enzyme inhibition, human tissue kallikrein 0.35 nM, substrate PFR-AMC; remark: listed apart in the source
[28] = target: T3, human plasmin; test: enzyme inhibition, human plasmin 50 pM, substrate GPK-AMC; remark: listed apart in the source
[29] = target: T2, Factor XIa; test: enzyme inhibition, FXIa 0.1 nM, substrate Boc-Glu(OBzl)-Ala-Arg-AMC
[30] = target: T6, human plasma kallikrein; test: enzyme inhibition, human plasma kallikrein […] nM, substrate PFR-AMC
[31] = target: T4, human tissue kallikrein; test: enzyme inhibition, human tissue kallikrein 0.35 nM, substrate PFR-AMC; remark: listed apart in the source

T3 sequence (P00747 97-810 limits assumed): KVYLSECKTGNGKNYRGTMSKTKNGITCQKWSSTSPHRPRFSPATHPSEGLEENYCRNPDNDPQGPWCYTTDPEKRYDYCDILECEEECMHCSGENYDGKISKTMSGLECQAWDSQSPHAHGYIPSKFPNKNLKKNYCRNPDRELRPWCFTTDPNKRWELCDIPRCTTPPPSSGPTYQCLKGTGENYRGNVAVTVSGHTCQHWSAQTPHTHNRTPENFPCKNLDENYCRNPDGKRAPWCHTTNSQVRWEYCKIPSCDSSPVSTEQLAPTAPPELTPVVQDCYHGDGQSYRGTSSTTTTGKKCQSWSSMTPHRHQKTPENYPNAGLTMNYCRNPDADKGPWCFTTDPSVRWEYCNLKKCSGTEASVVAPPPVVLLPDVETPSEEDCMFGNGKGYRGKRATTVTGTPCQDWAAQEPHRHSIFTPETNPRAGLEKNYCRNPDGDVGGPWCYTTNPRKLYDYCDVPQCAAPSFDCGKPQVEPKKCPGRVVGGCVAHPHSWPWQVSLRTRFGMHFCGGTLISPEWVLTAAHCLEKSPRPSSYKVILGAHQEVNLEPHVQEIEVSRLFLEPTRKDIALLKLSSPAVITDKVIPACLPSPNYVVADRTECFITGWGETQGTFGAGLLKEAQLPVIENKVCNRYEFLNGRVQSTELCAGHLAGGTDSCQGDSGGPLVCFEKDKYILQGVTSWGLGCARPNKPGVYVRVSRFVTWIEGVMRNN
T6 sequence (P03952 20-638 limits assumed): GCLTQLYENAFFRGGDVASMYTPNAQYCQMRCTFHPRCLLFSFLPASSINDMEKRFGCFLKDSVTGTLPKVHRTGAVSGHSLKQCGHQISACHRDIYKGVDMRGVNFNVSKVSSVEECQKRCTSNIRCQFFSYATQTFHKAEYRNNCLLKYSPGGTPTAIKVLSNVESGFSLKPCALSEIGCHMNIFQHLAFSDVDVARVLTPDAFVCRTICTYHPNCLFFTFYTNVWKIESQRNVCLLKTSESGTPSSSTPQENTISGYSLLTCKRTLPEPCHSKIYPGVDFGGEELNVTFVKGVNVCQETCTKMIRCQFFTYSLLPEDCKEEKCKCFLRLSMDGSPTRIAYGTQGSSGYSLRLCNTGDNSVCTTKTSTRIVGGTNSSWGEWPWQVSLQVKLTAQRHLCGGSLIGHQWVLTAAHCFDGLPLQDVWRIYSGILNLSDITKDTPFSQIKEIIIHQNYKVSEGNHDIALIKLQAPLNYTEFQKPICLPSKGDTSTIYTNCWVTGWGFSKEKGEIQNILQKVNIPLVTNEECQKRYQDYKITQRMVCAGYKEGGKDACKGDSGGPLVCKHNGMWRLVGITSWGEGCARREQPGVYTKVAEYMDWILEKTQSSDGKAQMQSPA
T4 sequence (P06870 25-262 limits assumed): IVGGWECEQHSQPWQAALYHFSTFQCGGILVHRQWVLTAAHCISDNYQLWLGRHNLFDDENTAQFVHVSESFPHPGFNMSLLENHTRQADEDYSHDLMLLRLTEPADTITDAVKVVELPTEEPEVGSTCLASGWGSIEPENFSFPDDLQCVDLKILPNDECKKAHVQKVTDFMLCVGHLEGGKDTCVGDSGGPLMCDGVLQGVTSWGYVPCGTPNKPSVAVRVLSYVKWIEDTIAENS
T9 sequence (P00760 24-246): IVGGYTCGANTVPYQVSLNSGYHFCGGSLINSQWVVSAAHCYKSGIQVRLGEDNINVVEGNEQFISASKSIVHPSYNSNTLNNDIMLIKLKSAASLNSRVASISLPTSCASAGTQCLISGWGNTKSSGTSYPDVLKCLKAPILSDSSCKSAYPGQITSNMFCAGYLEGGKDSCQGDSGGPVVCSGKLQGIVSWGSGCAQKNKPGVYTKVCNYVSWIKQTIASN
T7 sequence (P00742 41-179 limits assumed, chain 1 of 2): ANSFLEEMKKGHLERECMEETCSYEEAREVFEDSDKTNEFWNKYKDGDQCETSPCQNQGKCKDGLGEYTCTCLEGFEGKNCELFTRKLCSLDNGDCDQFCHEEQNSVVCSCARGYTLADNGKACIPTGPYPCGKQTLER
T7 sequence (P00742 235-488 limits assumed, chain 2 of 2): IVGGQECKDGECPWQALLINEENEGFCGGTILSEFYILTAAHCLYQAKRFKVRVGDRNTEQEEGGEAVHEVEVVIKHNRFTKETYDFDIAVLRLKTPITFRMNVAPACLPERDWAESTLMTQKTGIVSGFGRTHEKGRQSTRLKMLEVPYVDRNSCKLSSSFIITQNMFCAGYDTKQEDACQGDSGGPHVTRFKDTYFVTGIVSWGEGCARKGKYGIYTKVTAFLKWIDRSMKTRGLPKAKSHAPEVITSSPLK
tissue plasminogen activator (tPA), single chain form from human melanoma cell culture, sequence (P00750 36-562 limits assumed): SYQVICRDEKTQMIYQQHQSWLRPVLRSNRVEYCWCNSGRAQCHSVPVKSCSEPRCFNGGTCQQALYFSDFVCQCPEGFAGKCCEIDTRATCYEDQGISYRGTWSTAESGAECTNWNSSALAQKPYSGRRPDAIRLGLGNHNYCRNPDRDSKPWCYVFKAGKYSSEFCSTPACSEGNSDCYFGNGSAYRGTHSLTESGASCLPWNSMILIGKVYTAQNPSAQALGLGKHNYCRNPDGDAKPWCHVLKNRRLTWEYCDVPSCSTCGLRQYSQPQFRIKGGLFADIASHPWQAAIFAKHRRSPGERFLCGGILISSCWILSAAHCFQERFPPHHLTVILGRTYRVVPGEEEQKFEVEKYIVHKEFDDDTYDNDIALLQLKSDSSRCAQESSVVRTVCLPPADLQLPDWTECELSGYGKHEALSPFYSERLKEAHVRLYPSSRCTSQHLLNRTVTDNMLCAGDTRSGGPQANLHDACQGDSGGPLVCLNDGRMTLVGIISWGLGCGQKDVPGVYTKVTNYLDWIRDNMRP

B1: synthetic placental bikunin (102-159) (other)
chain: YEEYCTANAVTGPCRASFPRWYFDVERNSCNNFIYGGCRGNKNSYRSEEACMLRCFRQ
modifications: disulfide (positions not given here)
notes: also called KID2
Work on B1 yielded a Ki [1] of 323 nM, a Ki [2] of 15 nM and a Ki [3] of 1.8 nM. It also gave a Ki [4] of 1.8 nM, a Ki [5] of 0.13 nM and a Ki [6] of 0.2 nM. For the same binder, the Ki [7] was 11000 nM, the Ki [8] was 0.7 nM and the Ki [9] was 274 nM. For the same binder, the Ki [10] was 0.24 nM, the Ki [11] was 1.8 nM and the Ki [12] was 0.13 nM. For the same binder, the Ki [13] was 15 nM and the Ki [14] was 323 nM.

B2: synthetic placental bikunin (7-64), first preparation of Example 2 (other)
chain: IHDFCLVSKVVGRCRASMPRWWYNVTDGSCQLFVYGGCDGNSNNYLTKEECLKKCATV
notes: also called placental bikunin fragment (7-64); KID1
B2 gave a Ki [6] of 0.6 nM and a Ki [15] of 0.4 nM.

B3: placental bikunin (102-159) expressed in yeast strain SC101 (recombinant 2.4) and purified (other)
chain: YEEYCTANAVTGPCRASFPRWYFDVERNSCNNFIYGGCRGNKNSYRSEEACMLRCFRQ
notes: also called placental bikunin C-terminal domain
B3 gave a Ki [16] of 0.35 nM.

B4: native human placental bikunin isolated from placenta (other)
chain: ADRERSIHDFCLVSKVVGRCRASMPRWWYNVTDGSCQLFVYGGCDGNSNNYLTKEECLKKCATVTENATGDLATSRNAADSSVPSAPRRQDSEDHSSDMFNYEEYCTANAVTGPCRASFPRWYFDVERNSCNNFIYGGCRGNKNSYRSEEACMLRCFRQQENPPLPLGSK
modifications: Asn 30 silent in sequencing, likely glycosylated
notes: Soluble protein purified from human placenta; A minor species started at residue 6; also called native Placental Bikunin (1-179)
B4 gave a Ki [17] of 0.13 nM and a Ki [18] of 1.9 nM.

B5: placental bikunin (1-170) derived from a baculovirus/Sf9 expression system (other)
chain: ADRERSIHDFCLVSKVVGRCRASMPRWWYNVTDGSCQLFVYGGCDGNSNNYLTKEECLKKCATVTENATGDLATSRNAADSSVPSAPRRQDSEDHSSDMFNYEEYCTANAVTGPCRASFPRWYFDVERNSCNNFIYGGCRGNKNSYRSEEACMLRCFRQQENPPLPLGSK
notes: Both Kunitz domains, truncated before the transmembrane segment; N-terminus ADRER confirmed, so the signal peptide was removed; also called Recombinant Bikunin; recombinant placental bikunin (1-170)
B5 was tested, and the Ki [19] was 0.064 nM, the Ki [20] was 3 nM and the Ki [21] was 180 nM. It also gave a Ki [22] of 0.23 nM, a Ki [23] of 800 nM and a Ki [24] of 0.18 nM. The Ki [25] was 0.12 nM, the Ki [26] was under 60 nM and the Ki [27] was 0.04 nM.

B6: CHO expressed placental bikunin (1-170) (other)
chain: ADRERSIHDFCLVSKVVGRCRASMPRWWYNVTDGSCQLFVYGGCDGNSNNYLTKEECLKKCATVTENATGDLATSRNAADSSVPSAPRRQDSEDHSSDMFNYEEYCTANAVTGPCRASFPRWYFDVERNSCNNFIYGGCRGNKNSYRSEEACMLRCFRQQENPPLPLGSK
modifications: N-linked carbohydrate at Asn-30 and Asn-61 (so in the source)
notes: Glycosylated isoforms of 21-38 kDa; also called CHO Bikunin (1-170)
In the case of B6, the Ki [28] is reported as 0.2 nM, the Ki [29] is reported as 1.9 nM and the Ki [30] is reported as 0.5 nM. For the same binder, the Ki [31] was 0.3 nM.
